Measured values as given in patent US20220235140A1 (HEDGEHOG, published 2022).

Molecular target: T1, human endothelin receptor type A (human, UniProt P25101 21-427, limits assumed)
T1 construct: Immobilized on plates coated with human Galpha-i3 such that its extracellular regions were selectively exposed; also called ETA
T1 sequence (looked up): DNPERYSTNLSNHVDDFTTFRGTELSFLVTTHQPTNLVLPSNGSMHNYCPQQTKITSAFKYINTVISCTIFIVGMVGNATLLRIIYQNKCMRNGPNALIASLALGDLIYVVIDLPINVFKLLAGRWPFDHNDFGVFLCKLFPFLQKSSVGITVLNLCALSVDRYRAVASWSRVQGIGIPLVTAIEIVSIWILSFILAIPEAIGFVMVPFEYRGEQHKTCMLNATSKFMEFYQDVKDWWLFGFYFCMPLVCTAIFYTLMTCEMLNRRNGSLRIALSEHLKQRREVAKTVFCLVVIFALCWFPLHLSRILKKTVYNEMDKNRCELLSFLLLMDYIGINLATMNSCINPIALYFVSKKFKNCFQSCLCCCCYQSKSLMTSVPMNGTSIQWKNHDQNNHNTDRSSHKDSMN
Assay: ELISA, ETA immobilized via human Galpha-i3, antibody titrated

B1: AG8 (antibody, V domains shown)
VH: EVQLVESGAEVRKPGASVKVSCKASGYTFTSSDINWIRQATGQGLEWMGYMNPKNGNTDYAQKFQGRISMTRDSSISTAYMELSSLRSEDTAVYYCAKDRYGSGTYGFGMDVWGPGTLVT
VL: DIVMTQSPSAMSASVGDRVSITCRASQGINNYLAWFQQKPGKVPKRLMDVGSILQSGIPSRFRGRGSGTQFTLTISSLQAEDSGTYFCLQHNTYPLTFGPGTKVEIKR
Kd: 26.1 nM
